Data taken from the supplement of paper PMC10567573.

B1: TSPAN10 (parent)
chain: EGCGPPLRRWLRANLAASGGYAIA
B2: BCL2L13 (parent)
chain: YIIQQGGWGTVFSLESEEEEYPGI

Variants of: B1
Experiment: protein stability index of a GFP-peptide fusion (GPS, HEK-293T) (PSI 1-6); higher = more stable
Conditions: c terminus: a fixed tail appended
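Further: lentivirally expressed fusions sorted by FACS into six bins by GFP to DsRed ratio, PSI derived from sequencing read proportions per bin multiplied by bin number.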

Protein stability index of substitutions, site by site:
R9: E 2.28
R12: Q 2.17, M 1.9
E1: C 3.75, V 1
A22: L 2.06
P6: T 2.46
L15: H 2.62
P5: Y 1.6
R8: V 2.7, I 2.1
G20: C 1.56, A 1.94
A24: K 2.15
I23: C 2.15, T 2.53
C3: R 1.4
L7: G 1.82
W10: K 2.09, G 3.35, I 2.94
S18: C 2.15, G 1.98
G2: S 1.6
A17: W 2.03
G19: C 1.46
G4: E 1.98, I 2.28
L11: F 1.03, P 2.65, T 2.89
N14: K 2.81

Variants of: B2
Experiment: as above
Conditions: c terminus: a fixed tail appended

Protein stability index, by site and new letter:
E15: P 2.02, Q 2.31, T 1.67, G 1.82, S 2.81, N 2.34, K 1.27, M 3.49, L 2.57, F 2.92
I3: S 2.04, P 2.56, E 2.63, H 2.71, A 1.58, F 2.27
I2: K 3.31, M 2.86, F 2.68, H 2.9, L 2.76, R 2.42, Q 1.98, W 2.38, G 2.95, A 1.96, Y 2.46, E 5.34, D 3.9, T 2.75
G6: D 1.42, K 2.9, S 1.73, R 2.02, V 1.23, P 2.12, N 2.15, H 1.48, F 1.97, W 1.14, E 2.06, T 2.31
Q4: N 1.58, A 2.19, W 2.88, R 2.35, V 3.01, H 1.2, E 1.4
S13: G 1.74, T 1.62, P 1.38, E 1.33, C 1.49, N 3.23, V 2.28, H 1.43, D 2.72, F 2.46, Y 1.71, L 1.24
E20: D 1.71, A 1.13, G 1.51, N 2.17, K 2.15, H 2.46, I 3.47, S 1.82, P 2.87, R 2.98, M 1.31, C 1.91
F12: V 1.65, Q 1.24, S 2.03, M 2.98, R 1.83, A 2.5, H 1.75, L 1.81, E 2.66, N 1.56, P 1.58, K 2.39, T 2.13, I 1.64, D 2.35
I24: G 2.85, N 2.39, A 1.39, Y 1.22, C 1.34, T 1.1, S 1.23, K 1.75, P 2.14, F 2.58, M 1.53, D 1.54, L 1.82, V 1.78, H 1.63
W8: A 2.02, Q 3.93, M 1.88, D 2.56, L 1.99, Y 2.84, I 1.66, N 3.09, T 2.84, C 2.31, S 3.17, K 2.1, G 2.58, R 2.37, P 2.97, V 1.53, E 3.31, H 2.81, F 2.83
G7: C 1.72, I 2.58, A 2.35, N 1.05, E 1.74, Y 3.6, L 1.82, Q 2.85, H 2.14, R 1.73, K 2.06, T 1.45, S 1.46, D 1.87, P 1.58
L14: R 1.87, H 1, V 1.98, E 2.57, P 1.87, W 1.06, K 1.5, T 2.2, S 2.23, I 1.76, Y 1.84, Q 1.78, D 2.21
V11: H 2.25, L 1.36, N 1.98, S 2.61, R 1.91, P 1.76, A 2.12, F 2.93, K 1.64, Y 2.04, T 1, G 3.31, W 1.42, D 2.67, Q 1.86, I 1.78
E18: S 2.56, H 1.85, N 2.86, Q 2.13, L 1.92, D 1.96, P 1.53, F 2.56, T 1.99
Q5: M 1.67, T 1.72, E 1.33, R 1.92, G 1.69, W 2.16, N 1.73
G9: K 1.7, E 2.65, H 1.42, I 3.4, T 3, P 1.09, A 1.62, S 1.68, V 3.32, C 3.36, R 1.06, D 1.13, L 3.44, Q 1.81
Y1: T 3.75, V 2.57, L 1.87, Q 3.18, A 3.38, H 3.19, E 2.86, I 1.6, R 3.87, C 2.47, N 4.12, K 3.39, G 4.05, F 1.18, D 3.47, P 4.31
Y21: E 1.64, M 2.26, I 1.59, T 1.21, N 1.74, R 1.75, S 1.14, H 2.53, D 2.22, G 2.02, L 2.11, Q 2.33
P22: H 1.7, Q 1.47, L 2.9, D 2.69, A 2, Y 1.38, V 1.37, T 2.02, M 1.42, R 1.92, I 3.56, S 2.18, N 1.42, K 2.65, E 2.22
E19: Q 3.34, W 2.31, P 1.82, C 3.36, T 2.34, S 2.39, Y 2.41, D 1.19, H 2.29, L 2.41, R 1.93
S16: V 1.65, H 2.01, D 1.76, K 2.69, Y 2.61, C 3.01, G 2.38, I 4.26, N 1.83, M 2.68, E 1.59, F 2.94, T 2.25, A 1.69
T10: R 1.6, I 3.06, D 1.31, S 2.34, M 1.4, F 2.42, E 1.17, N 2.35, P 1.07, H 1.11
E17: P 4.07, W 2.52, D 1.19, Y 3.21, I 1.76, A 1.23, T 2.81, H 2.65, N 2.31, F 2.7, C 2.77
G23: Y 2.18, D 2.7, F 1.26, H 1, N 1.16, Q 1.84, P 1.97, V 1.85, E 2.43, M 2.57, R 1.28, W 1.93, I 1.76, K 2.61, L 2.01, A 1.21, T 2.58
